# Reference: patent US20180273587A1 (AILERON THERAPEUTICS, published 2018)
# Positions of bridges follow the written chain, without caps; N, C: chain ends. Non-standard residues stand in square brackets, D forms with d. αMeW = C[C@](N)(Cc1c[nH]c2ccccc12)C(=O)O; R8 = C=CCCCCCC[C@@](C)(N)C(=O)O; S5 = C=CCCC[C@](C)(N)C(=O)O; Ac6c = NC1(C(=O)O)CCCCC1; Aib = CC(C)(N)C(=O)O
# Assays:
# Experiment in all cases: Ki table, method not stated
# MCL-1 = biological target: T1, MCL-1 (UniProt Q07820 172-327, limits assumed)
# T1 construct: also called Myeloid cell leukemia 1
# T1 sequence (Q07820 172-327 limits assumed): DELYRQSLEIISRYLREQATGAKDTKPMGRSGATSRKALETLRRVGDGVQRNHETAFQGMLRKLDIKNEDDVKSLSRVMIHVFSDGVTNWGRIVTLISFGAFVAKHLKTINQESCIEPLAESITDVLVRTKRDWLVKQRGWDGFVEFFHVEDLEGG
# BCL-XL = BCL-XL (UniProt Q07817 1-209)
# Chain of BCL-XL (Q07817 1-209): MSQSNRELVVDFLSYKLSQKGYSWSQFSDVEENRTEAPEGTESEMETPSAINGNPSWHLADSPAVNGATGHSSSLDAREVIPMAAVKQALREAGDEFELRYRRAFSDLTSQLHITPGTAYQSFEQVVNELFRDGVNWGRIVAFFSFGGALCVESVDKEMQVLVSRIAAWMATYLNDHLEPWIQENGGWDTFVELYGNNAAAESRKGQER
# BCL-2 = BCL-2 (UniProt P10415 1-217, limits assumed)
# Chain of BCL-2 (P10415 1-217 limits assumed): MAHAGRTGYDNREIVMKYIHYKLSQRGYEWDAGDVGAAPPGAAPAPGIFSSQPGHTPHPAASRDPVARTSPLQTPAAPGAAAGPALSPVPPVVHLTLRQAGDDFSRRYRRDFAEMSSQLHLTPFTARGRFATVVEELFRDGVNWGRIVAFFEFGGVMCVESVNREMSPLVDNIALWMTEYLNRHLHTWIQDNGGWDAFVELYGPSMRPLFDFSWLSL
Binder,Ki (MCL-1),Ki (BCL-XL),Ki (BCL-2)
"Ac-I[αMeW]IAQALR[R8]IGDAFN[S5]YYA-NH2 (staple 9-16; SMILES CC[C@H](C)[C@H](NC(C)=O)C(=O)N[C@@](C)(Cc1c[nH]c2ccccc12)C(=O)N[C@H](C(=O)N[C@@H](C)C(=O)N[C@@H](CCC(N)=O)C(=O)N[C@@H](C)C(=O)N[C@@H](CC(C)C)C(=O)N[C@@H](CCCNC(=N)N)C(=O)N[C@]1(C)CCCCCCC=CCCC[C@@](C)(C(=O)N[C@@H](Cc2ccc(O)cc2)C(=O)N[C@@H](Cc2ccc(O)cc2)C(=O)N[C@@H](C)C(N)=O)NC(=O)[C@H](CC(N)=O)NC(=O)[C@H](Cc2ccccc2)NC(=O)[C@H](C)NC(=O)[C@H](CC(=O)O)NC(=O)CNC(=O)[C@H]([C@@H](C)CC)NC1=O)[C@@H](C)CC, also called Ac-IAmWIAQALR$r8IGDAFN$YYA-NH2) [SEQ ID NO: 1703]",9.9 nM,17.4 nM,70.6 nM
"Ac-I[Aib]IAQALR[R8]IGDAFN[S5]YYA-NH2 (staple 9-16; SMILES CC[C@H](C)[C@H](NC(C)=O)C(=O)NC(C)(C)C(=O)N[C@H](C(=O)N[C@@H](C)C(=O)N[C@@H](CCC(N)=O)C(=O)N[C@@H](C)C(=O)N[C@@H](CC(C)C)C(=O)N[C@@H](CCCNC(=N)N)C(=O)N[C@]1(C)CCCCCCC=CCCC[C@@](C)(C(=O)N[C@@H](Cc2ccc(O)cc2)C(=O)N[C@@H](Cc2ccc(O)cc2)C(=O)N[C@@H](C)C(N)=O)NC(=O)[C@H](CC(N)=O)NC(=O)[C@H](Cc2ccccc2)NC(=O)[C@H](C)NC(=O)[C@H](CC(=O)O)NC(=O)CNC(=O)[C@H]([C@@H](C)CC)NC1=O)[C@@H](C)CC, also called Ac-IAibIAQALR$r8IGDAFN$YYA-NH2) [SEQ ID NO: 1704]",42.5 nM,83.5 nM,97.9 nM

# The remaining lines, values ahead:
Ki (MCL-1),Ki (BCL-XL),Ki (BCL-2),Binder
10.4 nM,7.7 nM,25.7 nM,"Ac-IW[Ac6c]AQALR[R8]IGDAFN[S5]YYA-NH2 (staple 9-16; SMILES CC[C@H](C)[C@H](NC(C)=O)C(=O)N[C@@H](Cc1c[nH]c2ccccc12)C(=O)NC1(C(=O)N[C@@H](C)C(=O)N[C@@H](CCC(N)=O)C(=O)N[C@@H](C)C(=O)N[C@@H](CC(C)C)C(=O)N[C@@H](CCCNC(=N)N)C(=O)N[C@]2(C)CCCCCCC=CCCC[C@@](C)(C(=O)N[C@@H](Cc3ccc(O)cc3)C(=O)N[C@@H](Cc3ccc(O)cc3)C(=O)N[C@@H](C)C(N)=O)NC(=O)[C@H](CC(N)=O)NC(=O)[C@H](Cc3ccccc3)NC(=O)[C@H](C)NC(=O)[C@H](CC(=O)O)NC(=O)CNC(=O)[C@H]([C@@H](C)CC)NC2=O)CCCCC1, also called Ac-IWAc6cAQALR$r8IGDAFN$YYA-NH2) [SEQ ID NO: 1714]"
5.5 nM,59 nM,120 nM,"Ac-IWIA[Aib]ALR[R8]IGDAFN[S5]YYA-NH2 (staple 9-16; SMILES CC[C@H](C)[C@H](NC(C)=O)C(=O)N[C@@H](Cc1c[nH]c2ccccc12)C(=O)N[C@H](C(=O)N[C@@H](C)C(=O)NC(C)(C)C(=O)N[C@@H](C)C(=O)N[C@@H](CC(C)C)C(=O)N[C@@H](CCCNC(=N)N)C(=O)N[C@]1(C)CCCCCCC=CCCC[C@@](C)(C(=O)N[C@@H](Cc2ccc(O)cc2)C(=O)N[C@@H](Cc2ccc(O)cc2)C(=O)N[C@@H](C)C(N)=O)NC(=O)[C@H](CC(N)=O)NC(=O)[C@H](Cc2ccccc2)NC(=O)[C@H](C)NC(=O)[C@H](CC(=O)O)NC(=O)CNC(=O)[C@H]([C@@H](C)CC)NC1=O)[C@@H](C)CC, also called Ac-IWIAAibALR$r8IGDAFN$YYA-NH2) [SEQ ID NO: 1708]"
